Test results from article PMC2660430.

Target: PfOAT (recombinant ornithine aminotransferase) (P. falciparum strain 3D7) (UniProt Q6LFH8)
Sequence (Q6LFH8 whole entry): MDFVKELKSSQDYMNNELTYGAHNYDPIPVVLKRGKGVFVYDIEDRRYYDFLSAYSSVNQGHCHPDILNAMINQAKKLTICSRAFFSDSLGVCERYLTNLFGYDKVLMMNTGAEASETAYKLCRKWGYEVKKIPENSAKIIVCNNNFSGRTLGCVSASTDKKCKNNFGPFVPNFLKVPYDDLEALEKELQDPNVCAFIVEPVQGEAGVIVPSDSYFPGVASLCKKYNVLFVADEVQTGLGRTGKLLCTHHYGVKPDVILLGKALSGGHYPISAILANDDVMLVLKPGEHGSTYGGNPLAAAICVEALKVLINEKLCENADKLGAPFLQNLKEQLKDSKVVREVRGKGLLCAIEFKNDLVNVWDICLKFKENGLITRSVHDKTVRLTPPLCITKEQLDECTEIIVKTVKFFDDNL

OAT activity (ornithine aminotransferase assay) with equimolar wild type thioredoxin: 75%
Substance: PfTrx1 (wild type thioredoxin) (from UniProt Q7KQL8 1-104) (natural protein)
